Results published in PMC3039378 (The Journal of Biological Chemistry, 2010).
One block for each molecule: values may come before it.

How the values were obtained:
[1] = molecular target: SecA_(795Fl), SecA_(A795C) labelled with 5-iodoacetamidofluorescein (E. coli) (UniProt P10408); assay: other fluorescence titration
[2] = molecular target: SecA (wild type) (E. coli) (UniProt P10408)
[3] = molecular target: SecA-SecYEG complex with SecYE_(L106C)G cross-linked (106X, back-to-back dimer) in proteoliposomes (E. coli) (UniProt P10408)
[4] = molecular target: SecA-SecYEG complex with SecYE_(L106C)G uncross-linked (106) in proteoliposomes (E. coli) (UniProt P10408)
[5] = molecular target: SecA-SecYEG complex (wild-type SecYEG in proteoliposomes with SecA) (E. coli, UniProt P10408;P0AGA2;P0AG96;P0AG99)
cross-linking = molecular target: the molecule itself; assay: cross-linking
[6] = molecular target: T1, SecY subunit (within wild-type SecYEG) (E. coli, UniProt P0AGA2 1-443); assay: cross-linking
T1 sequence: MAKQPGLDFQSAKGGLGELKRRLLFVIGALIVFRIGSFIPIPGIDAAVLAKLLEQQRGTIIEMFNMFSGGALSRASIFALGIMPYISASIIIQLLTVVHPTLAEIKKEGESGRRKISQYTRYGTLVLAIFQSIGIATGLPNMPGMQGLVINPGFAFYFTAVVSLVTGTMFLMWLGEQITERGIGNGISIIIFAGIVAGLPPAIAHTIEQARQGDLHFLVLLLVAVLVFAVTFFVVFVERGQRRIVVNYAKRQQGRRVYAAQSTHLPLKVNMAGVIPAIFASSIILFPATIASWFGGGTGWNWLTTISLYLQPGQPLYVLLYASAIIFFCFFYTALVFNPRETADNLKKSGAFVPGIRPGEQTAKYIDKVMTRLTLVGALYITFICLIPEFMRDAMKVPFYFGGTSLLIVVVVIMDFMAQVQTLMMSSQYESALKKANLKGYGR

Kd [1]: < 1 nM
Kd [2]: 78 nM
Molecule: SecYE_(L106C)G cross-linked (106X), back-to-back dimer (from UniProt P0AGA2;P0AG96;P0AG99) (complex)

Kd [3]: 92 nM
Kd [4]: 93 nM
Molecule: proOmpA (full-length, wild type) (from UniProt P0A910 1-346) (natural protein)

Kd [5]: 72 ± 41 nM
B1: proOmpA (full-length, wild type) (natural protein)
chain: MKKTAIAIAVALAGFATVAQAAPKDNTWYTGAKLGWSQYHDTGFINNNGPTHENQLGAGAFGGYQVNPYVGFEMGYDWLGRMPYKGSVENGAYKAQGVQLTAKLGYPITDDLDIYTRLGGMVWRADTKSNVYGKNHDTGVSPVFAGGVEYAITPEIATRLEYQWTNNIGDAHTIGTRPDNGMLSLGVSYRFGQGEAAPVVAPAPAPAPEVQTKHFTLKSDVLFNFNKATLKPEGQAALDQLYSQLSNLDPKDGSVVVLGYTDRIGSDAYNQGLSERRAQSVVDYLISKGIPADKISARGMGESNPVTGNTCDNVKQRAALIDCLAPDRRVEIEVKGIKDVVTQPQA

binding result [6]: binds
B2: SecE subunit (within wild-type SecYEG) (natural protein)
chain: MSANTEAQGSGRGLEAMKWVVVVALLLVAIVGNYLYRDIMLPLRALAVVILIAAAGGVALLTTKGKATVAFAREARTEVRKVIWPTRQETLHTTLIVAAVTAVMSLILWGLDGILVRLVSFITGLRF
binding result (cross-linking): binds
